Test results: patent US20060257938A1, “Method of screening for drugs that block ligand binding to a lipid binding protein” (priority 2005, published 2006)
Where a chain is given by its changes, count along the chain named.

B1: 72T 73W 74S (protein, listed as Rattus norvegicus)
chain: AFDGTWKVDRNENYEKFMEKMGINVVKRKLGAHDNLKLTITQEGNKFTVKESSNFRNIDVVFELGVDFAYSTWSGTELTGTWTMEGNKLVGKFKRVDNGKELIAVREISGNELIQTYTYEGVEAKRIFKKE
modifications: PEPTIDE (1)...(131) wild-type rat intestinal fatty acid binding protein
B2: 73W 72A 74F (protein, listed as Rattus norvegicus)
chain: B1 chain with T72A, S74F
modifications: PEPTIDE (1)...(131) wild-type rat intestinal fatty acid binding protein
B3: 72S 73V 74V (protein, listed as Rattus norvegicus)
chain: B1 chain with T72S, W73V, S74V
modifications: PEPTIDE (1)...(131) wild-type rat intestinal fatty acid binding protein
B4: 21F 78V 102V 72A (protein, listed as Rattus norvegicus)
chain: B1 chain with M21F, T72A, W73A, S74D, L78V, L102V
modifications: PEPTIDE (1)...(131) wild-type rat intestinal fatty acid binding protein
B5: 72T 73W 74E (protein, listed as Rattus norvegicus)
chain: B1 chain with S74E
modifications: PEPTIDE (1)...(131) wild-type rat intestinal fatty acid binding protein
B6: 72W 73T 74G (protein, listed as Rattus norvegicus)
chain: B1 chain with T72W, W73T, S74G
modifications: PEPTIDE (1)...(131) wild-type rat intestinal fatty acid binding protein
B7: 72A 73W 74S (protein, listed as Rattus norvegicus)
chain: B1 chain with T72A
modifications: PEPTIDE (1)...(131) wild-type rat intestinal fatty acid binding protein
B8: 72T 74I (protein, listed as Rattus norvegicus)
chain: B1 chain with W73A, S74I
modifications: PEPTIDE (1)...(131) wild-type rat intestinal fatty acid binding protein
B9: 72T 73V 74V (protein, listed as Rattus norvegicus)
chain: B1 chain with W73V, S74V
modifications: PEPTIDE (1)...(131) wild-type rat intestinal fatty acid binding protein
B10: 72T 73V 74L (protein, listed as Rattus norvegicus)
chain: B1 chain with W73V, S74L
modifications: PEPTIDE (1)...(131) wild-type rat intestinal fatty acid binding protein
B11: 72S 73W 74E (protein, listed as Rattus norvegicus)
chain: B1 chain with T72S, S74E
modifications: PEPTIDE (1)...(131) wild-type rat intestinal fatty acid binding protein
B12: 72G 73W (protein, listed as Rattus norvegicus)
chain: B1 chain with T72G, S74D
modifications: PEPTIDE (1)...(131) wild-type rat intestinal fatty acid binding protein
B13: 72T 74V (protein, listed as Rattus norvegicus)
chain: B1 chain with W73A, S74V
modifications: PEPTIDE (1)...(131) wild-type rat intestinal fatty acid binding protein
B14: 72S 73W 74S (protein, listed as Rattus norvegicus)
chain: B1 chain with T72S
modifications: PEPTIDE (1)...(131) wild-type rat intestinal fatty acid binding protein
B15: 72S 73L 74A (protein, listed as Rattus norvegicus)
chain: B1 chain with T72S, W73L, S74A
modifications: PEPTIDE (1)...(131) wild-type rat intestinal fatty acid binding protein
B16: 72T 73W 74L (protein, listed as Rattus norvegicus)
chain: B1 chain with S74L
modifications: PEPTIDE (1)...(131) wild-type rat intestinal fatty acid binding protein
B17: 72S 73W 74N (protein, listed as Rattus norvegicus)
chain: B1 chain with T72S, S74N
modifications: PEPTIDE (1)...(131) wild-type rat intestinal fatty acid binding protein

experiment: Probe fluorescence ratio response to stearic acid relative to ADIFAB2; type: binding; conditions: response relative to ADIFAB2
Excerpt: (§1) In an alternate preferred embodiment, the protein is rI-FABP that has Ala substituted for Leu at position 72 (rI-FABP-L72A) with the resulting probe named ADIFAB2. […] Other probes useful in embodiments of the invention are shown in Tables 1-6 and are also described in U.S. application Ser. No. 11/085,792, filed Mar. 21, 2005 which is incorporated herein by reference. The indicated substitutions are with reference to the ADIFAB protein of SEQ ID NO: 2.
(§2) ADIFAB2 also has an altered spectral response, making it especially useful for measurements of FFAu in blood samples (Apple et al, Clinical Proteomics, (2004) 1:41-44, U.S. patent application Ser. No. 10/670,958). The wavelengths at the maximum intensities emitted by these fluorescently-labeled I-FABP's in the absence of FFA is about 420 to 480 nm. The emission wavelengths at the maximum intensities emitted by these fluorescently-labeled I-FABP's with FFA bound are between about 495 to 580 nm. Experiments typically involve measuring the fluorescence response within both emission maxima or at wavelengths for which the effect of interfering molecules such as hemoglobin can be eliminated as described in U.S. application Ser. No. 10/670958 and PCT/US2004/030521 and the calculation of the ratio ‘R’ of the two fluorescence intensities. The baseline value for this ratio, measured in the absence of analyte, is designated R0.
(§3) The intensity ratio (“R” value) is determined as follows. The ratio is calculated using the following formula: R=Fλ1/Fλ2 wherein, Fλ1 is the measured fluorescence intensities (intensity of sample with probe present minus intensity of sample without probe present) at wavelength 1 and Fλ2 is the measured fluorescence intensities (intensity of sample with probe present minus intensity of sample without probe present) at wavelength 2. Then, for a given probe, ΔR, the difference in R value between the measurement in the presence of the test compound (agent) and in the absence of the test compound (agent), is calculated as follows: ΔR=R+agent−R0 In some embodiments, the ΔR value may then be compared to some reference, for example, an agent with a known affinity for a given probe, by ΔR/ΔRreference. Measurements of fluorescence intensities are obtained using standard techniques.

| Molecule | DR/DR SA |
| --- | --- |
| B1 | 1.620 |
| B2 | 1.485 |
| B3 | 1.058 |
| B4 | 3.120 |
| B5 | 0.877 |
| B6 | 1.040 |
| B7 | 1.095 |
| B8 | 1.806 |
| B9 | 1.918 |
| B10 | 1.411 |
| B11 | 1.285 |
| B12 | 0.294 |
| B13 | 1.781 |
| B14 | 1.106 |
| B15 | 2.574 |
| B16 | 1.217 |
| B17 | 1.255 |

experiment: Probe fluorescence ratio response to linolenic acid relative to ADIFAB2; type: binding; conditions: response relative to ADIFAB2
Summary of the method: (§4)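 Each fatty acid's response was expressed relative to ADIFAB2, the rI-FABP-L72A probe, as ΔR/ΔRreference. ΔR is the change in the background-corrected two-wavelength intensity ratio R=Fλ1/Fλ2 from its analyte-free baseline R0. Emission was read near about 420-480 nm for unbound and about 495-580 nm for FFA-bound probe.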

| Molecule | DR/DR LNA |
| --- | --- |
| B1 | 4.826 |
| B2 | 3.875 |
| B3 | 3.088 |
| B4 | 3.775 |
| B5 | 3.818 |
| B6 | 3.394 |
| B7 | 4.401 |
| B8 | 3.169 |
| B9 | 3.618 |
| B10 | 3.508 |
| B11 | 4.799 |
| B12 | 3.637 |
| B13 | 3.680 |
| B14 | 4.147 |
| B15 | 3.322 |
| B16 | 3.009 |
| B17 | 4.220 |

experiment: Probe fluorescence ratio response to palmitic acid relative to ADIFAB2; type: binding; conditions: response relative to ADIFAB2
Summary of the method: as §4

| Molecule | DR/DR PA |
| --- | --- |
| B1 | 4.155 |
| B2 | 3.264 |
| B3 | 2.091 |
| B4 | 2.756 |
| B5 | 3.842 |
| B6 | 2.934 |
| B7 | 4.039 |
| B8 | 2.476 |
| B9 | 2.987 |
| B10 | 2.674 |
| B11 | 4.210 |
| B12 | 2.968 |
| B13 | 3.149 |
| B14 | 3.536 |
| B15 | 3.293 |
| B16 | 2.727 |
| B17 | 3.333 |

experiment: Probe fluorescence ratio response to linoleic acid relative to ADIFAB2; type: binding; conditions: response relative to ADIFAB2
Summary of the method: as §4

| Molecule | DR/DR LA |
| --- | --- |
| B1 | 4.612 |
| B2 | 3.718 |
| B3 | 3.085 |
| B4 | 4.204 |
| B5 | 3.254 |
| B6 | 3.099 |
| B7 | 3.806 |
| B8 | 3.156 |
| B9 | 3.502 |
| B10 | 3.165 |
| B11 | 4.079 |
| B12 | 2.698 |
| B13 | 3.630 |
| B14 | 3.787 |
| B15 | 3.455 |
| B16 | 2.819 |
| B17 | 3.977 |

experiment: Probe fluorescence ratio response to palmitoleic acid relative to ADIFAB2; type: binding; conditions: response relative to ADIFAB2
Excerpt: as §1, §2, §3

| Molecule | DR/DR POA |
| --- | --- |
| B1 | 5.826 |
| B2 | 5.256 |
| B3 | 3.322 |
| B4 | 3.365 |
| B5 | 5.353 |
| B6 | 4.105 |
| B7 | 4.864 |
| B8 | 3.410 |
| B9 | 4.015 |
| B10 | 3.642 |
| B11 | 6.109 |
| B12 | 4.082 |
| B13 | 4.074 |
| B14 | 4.656 |
| B15 | 3.923 |
| B16 | 3.574 |
| B17 | 4.867 |

experiment: Probe fluorescence ratio response to arachidonic acid relative to ADIFAB2; type: binding; conditions: arachidonic acid; response relative to ADIFAB2
Summary of the method: as §4

| Molecule | DR/DR AA |
| --- | --- |
| B1 | 4.129 |
| B2 | 3.378 |
| B3 | 2.712 |
| B4 | 4.511 |
| B5 | 2.442 |
| B6 | 2.808 |
| B7 | 3.211 |
| B8 | 2.502 |
| B9 | 3.237 |
| B10 | 2.774 |
| B11 | 3.751 |
| B12 | 2.260 |
| B13 | 2.680 |
| B14 | 3.545 |
| B15 | 3.336 |
| B16 | 2.721 |
| B17 | 3.770 |

experiment: Probe fluorescence ratio response to oleic acid relative to ADIFAB2; type: binding; conditions: response relative to ADIFAB2
Summary of the method: as §4

| Molecule | DR/DR OA |
| --- | --- |
| B1 | 4.177 |
| B2 | 3.255 |
| B3 | 2.556 |
| B4 | 4.223 |
| B5 | 2.200 |
| B6 | 2.514 |
| B7 | 3.155 |
| B8 | 2.660 |
| B9 | 3.166 |
| B10 | 2.832 |
| B11 | 3.212 |
| B12 | 1.106 |
| B13 | 2.957 |
| B14 | 2.863 |
| B15 | 3.495 |
| B16 | 2.340 |
| B17 | 3.490 |
